Results taken from patent US20230399385A1.

Molecular target: SARS-CoV-2 spike (S) glycoprotein, wild-type, on pseudotyped virus (SARS-CoV-2) (UniProt P0DTC2)
Test: cell-based or functional assay

Sequence of JS016 (antibody) (VH): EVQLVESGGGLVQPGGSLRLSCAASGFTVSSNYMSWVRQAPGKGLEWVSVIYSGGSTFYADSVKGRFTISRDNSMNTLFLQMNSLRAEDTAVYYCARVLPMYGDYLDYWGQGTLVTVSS
Sequence of JS016 (antibody) (VL): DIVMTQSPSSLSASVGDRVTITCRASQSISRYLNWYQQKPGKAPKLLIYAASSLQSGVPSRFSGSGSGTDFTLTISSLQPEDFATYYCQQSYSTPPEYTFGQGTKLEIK

JS016 (antibody)
IC50, pseudovirus neutralization study against wild-type SARS-CoV-2: 0.0631 µg/mL
